# Test results taken from publication PMC7089970, “Structural insights into catalytic mechanism and product delivery of cyanobacterial acyl-acyl carrier protein reductase” (Nature Communications, 2020).
# “Also recorded” adds a separate entry of the source. Like-named read-outs stand apart in the source and are kept apart here.
# How the values were obtained:
# [1] = for heptadecane product yield of wild-type ADO compared with triple mutant E196A/E200A/D201A of ADO: both incubated with AAR
# Protocol: For measuring the enzymatic activity of AAR, the AAR protein at the concentration of 20 µM was mixed with 2 mM NADPH and 0.5 mM stearoyl-CoA in a 100 µL reaction buffer containing 20 mM HEPES pH 7.5, 200 mM KCl, 0.5 mM MgCl2, and 0.5 mM TCEP. […] The ferrodoxin and FNR are recombinant proteins from cyanobacterial strains Synechocystis sp. […] PCC 7942, respectively, and were added into the reaction buffer for supplying electrons for the reduction of ADO. The mixture was incubated at 30 °C for 5 h. The produced octadecanal and heptadecane were extracted by addition of an equal volume of ethyl acetate (Sigma Aldrich, HPLC grade) and centrifuged at 13,000 × g for 15 min at room temperature. The extraction step was repeated for three times. The extracted supernatant was pooled together, dried with nitrogen gas, and then resolved in 20 µL ethyl acetate for the GC-MS measurement.
# The concentration of octadecanal and heptadecane was measured using an Agilent 7890 A gas chromatograph coupled with an Agilent 7000B QQQ mass spectrometer. A total of 2 µL sample was loaded with the helium as the carrier gas onto the chromatographic column HP-5ms (30 mM × 0.25 mM ID, 0.25 μm; Agilent) at the flow rate of 1.3 ml min^−1. The injector temperature maintained at 300 °C with spotless mode. The GC oven settings were as follows: initial temperature 75 °C, held for 5 min, then at 40 °C min^−1, increased to 325 °C and held for 5 min. Ionization mode of EI (70 eV, 230 °C) and full scan of 50–550 m/z were chosen for MS detection. The standard curve was plotted based on the measuring of the commercial octadecanal and heptadecane (Sigma Aldrich) at a gradient concentration (from 3.125 to 75 µg mL^−1). Data were acquired and processed using MassHunter Workstation Software and the NIST database.
# [2] = molecular target: T1, aldehyde-deformylating oxygenase from Synechococcus elongatus PCC 7942, wild type, His-tag removed (Synechococcus elongatus PCC 7942, UniProt Q54764 1-231); test: ITC
# T1 chain: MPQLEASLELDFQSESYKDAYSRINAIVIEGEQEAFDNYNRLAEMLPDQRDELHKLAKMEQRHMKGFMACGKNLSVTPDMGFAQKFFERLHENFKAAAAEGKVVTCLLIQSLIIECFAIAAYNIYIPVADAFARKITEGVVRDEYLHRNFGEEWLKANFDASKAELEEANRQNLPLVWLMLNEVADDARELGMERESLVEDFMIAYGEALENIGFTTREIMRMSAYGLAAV
# [3] = molecular target: T2, acyl-acyl carrier protein (acyl-ACP) reductase from Synechococcus elongatus PCC 7942, wild type, His-tag … (Synechococcus elongatus PCC 7942, UniProt Q54765 1-341); test: ITC; ADO (wild type or mutant) in the sample cell at 30 µM, titrated with 2-µL injections of 500 µM AAR; 25 mM Tris-HCl pH 7.5, 1 mM TCEP; settings: both partners purified
# T2 construct: acyl-ACP reductase (AAR), Synechococcus elongatus PCC 7942, gene Synpcc7942_1594; complete protein of 341 residues; after TEV cleavage ENLYFQ probably stays at the C-terminus (surmised); also called AAR; SeAAR; not shown: His6, C-terminal, cleaved
# T2 sequence (looked up): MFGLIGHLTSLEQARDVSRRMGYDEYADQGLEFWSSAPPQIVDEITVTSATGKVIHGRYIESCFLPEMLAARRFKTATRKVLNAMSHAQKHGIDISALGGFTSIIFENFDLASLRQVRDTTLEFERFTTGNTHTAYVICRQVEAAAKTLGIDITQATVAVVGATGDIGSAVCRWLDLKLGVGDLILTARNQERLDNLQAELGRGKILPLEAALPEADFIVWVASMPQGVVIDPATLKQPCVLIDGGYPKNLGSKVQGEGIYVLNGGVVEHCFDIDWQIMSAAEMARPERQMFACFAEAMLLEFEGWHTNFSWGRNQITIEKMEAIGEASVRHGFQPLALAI
# AAR = molecular target: T3, AAR (Synechococcus elongatus, UniProt Q54765); test: ITC binding of ADO (wild type and mutants) with AAR; design: species or system Synechococcus elongatus PCC 7942
# T3 construct: modeled the complete AAR protein containing 341 amino acid residues; 22-residue C-terminal peptide with His6 (G + […]) (C, cleaved yes); made in house; host or cells: E. coli BL21(DE3) co-transformed with chaperone plasmid pG-KJE8
# T3 sequence (Q54765 1-341): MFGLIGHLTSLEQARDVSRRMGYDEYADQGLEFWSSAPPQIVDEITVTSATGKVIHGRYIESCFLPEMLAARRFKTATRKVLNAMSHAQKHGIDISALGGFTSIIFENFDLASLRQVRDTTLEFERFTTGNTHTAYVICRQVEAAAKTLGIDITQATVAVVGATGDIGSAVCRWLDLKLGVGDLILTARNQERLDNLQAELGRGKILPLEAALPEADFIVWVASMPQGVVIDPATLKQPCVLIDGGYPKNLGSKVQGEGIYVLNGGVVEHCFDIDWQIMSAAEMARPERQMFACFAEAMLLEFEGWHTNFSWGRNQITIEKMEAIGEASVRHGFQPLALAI
# Protocol: The binding affinity of AAR with ADO or stearoyl-CoA was measured by isotheral titration calorimetry (ITC) using a MicroCal Auto-ITC200 microcalorimeter (GE Healthcare Bio-sciences, Pittsburgh, PA). […] Wild type or mutants of ADO (or AAR) were placed into the sample cell (200 µL working volume) at a final concentration of 30 µM (60 µM for AAR) and was titrated with successive 2-µL injections of AAR protein with concentration of 500 µM (or ADO protein with concentration of 1 mM). Titrating AAR (500 µM) or ADO (1 mM) into the same buffer was performed as a control to determine the background correction. […] Injection of stearyol-CoA into the reaction buffer was performed as control to determine background correction.
molecule,measurement,setting,value
"ADO wild type: aldehyde-deformylating oxygenase from Synechococcus elongatus PCC 7942, wild type recombinant protein",heptadecane product yield of wild-type ADO compared with triple mutant E196A/E200A/D201A of ADO,[1]; listed as wild type ADO,more than twice
same,heptadecane product yield of wild-type ADO compared with triple mutant E196A/E200A/D201A of ADO,[1]; listed as wild-type ADO,two times more product
"acyl-acyl carrier protein (acyl-ACP) reductase from Synechococcus elongatus PCC 7942, wild type, His-tag removed (enzyme) MFGLIGHLTSLEQARDVSRRMGYDEYADQGLEFWSSAPPQIVDEITVTSATGKVIHGRYIESCFLPEMLAARRFKTATRKVLNAMSHAQKHGIDISALGGFTSIIFENFDLASLRQVRDTTLEFERFTTGNTHTAYVICRQVEAAAKTLGIDITQATVAVVGATGDIGSAVCRWLDLKLGVGDLILTARNQERLDNLQAELGRGKILPLEAALPEADFIVWVASMPQGVVIDPATLKQPCVLIDGGYPKNLGSKVQGEGIYVLNGGVVEHCFDIDWQIMSAAEMARPERQMFACFAEAMLLEFEGWHTNFSWGRNQITIEKMEAIGEASVRHGFQPLALAI",Ka,[2],496000 M⁻¹
"aldehyde-deformylating oxygenase from Synechococcus elongatus PCC 7942, D201A mutant (enzyme, UniProt Q54764 1-231, looked up, aldehyde-deformylating oxygenase (ADO), Synechococcus elongatus PCC 7942, gene Synpcc7942_1593; Made by PCR on pET24a-ADO; also called ADO D201A; source: E. coli BL21(DE3), purified (same protocol as wild-type ADO); not shown: His6, C-terminal, cleaved) MPQLEASLELDFQSESYKDAYSRINAIVIEGEQEAFDNYNRLAEMLPDQRDELHKLAKMEQRHMKGFMACGKNLSVTPDMGFAQKFFERLHENFKAAAAEGKVVTCLLIQSLIIECFAIAAYNIYIPVADAFARKITEGVVRDEYLHRNFGEEWLKANFDASKAELEEANRQNLPLVWLMLNEVADDARELGMERESLVEAFMIAYGEALENIGFTTREIMRMSAYGLAAV",Kd,[3],4.9 ± 1.4 µM
"ADO E196A/E200A/D201A (protein, left off: His6, C-terminal, cleaved) MPQLEASLELDFQSESYKDAYSRINAIVIEGEQEAFDNYNRLAEMLPDQRDELHKLAKMEQRHMKGFMACGKNLSVTPDMGFAQKFFERLHENFKAAAAEGKVVTCLLIQSLIIECFAIAAYNIYIPVADAFARKITEGVVRDEYLHRNFGEEWLKANFDASKAELEEANRQNLPLVWLMLNEVADDARELGMERASLVAAFMIAYGEALENIGFTTREIMRMSAYGLAAV",yield of octadecanal compared with the wild type ADO reaction system (in words),[1]; AAR incubated with wild type or triple mutant ADO,similar
same,binding of ADO mutant with AAR (in words),AAR,completely lose their capability to bind AAR; also recorded: completely abolished the capability of ADO to bind with AAR
"aldehyde-deformylating oxygenase from Synechococcus elongatus PCC 7942, E211A mutant (enzyme, UniProt Q54764 1-231, looked up, aldehyde-deformylating oxygenase (ADO), Synechococcus elongatus PCC 7942, gene Synpcc7942_1593; Made by PCR on pET24a-ADO; also called ADO E211A; source: E. coli BL21(DE3), purified (same protocol as wild-type ADO); not shown: His6, C-terminal, cleaved) MPQLEASLELDFQSESYKDAYSRINAIVIEGEQEAFDNYNRLAEMLPDQRDELHKLAKMEQRHMKGFMACGKNLSVTPDMGFAQKFFERLHENFKAAAAEGKVVTCLLIQSLIIECFAIAAYNIYIPVADAFARKITEGVVRDEYLHRNFGEEWLKANFDASKAELEEANRQNLPLVWLMLNEVADDARELGMERESLVEDFMIAYGEALANIGFTTREIMRMSAYGLAAV",Kd,[3],2.8 ± 0.85 µM
"aldehyde-deformylating oxygenase from Synechococcus elongatus PCC 7942, E208A mutant (enzyme, UniProt Q54764 1-231, looked up, aldehyde-deformylating oxygenase (ADO), Synechococcus elongatus PCC 7942, gene Synpcc7942_1593; Made by PCR on pET24a-ADO; also called ADO E208A; source: E. coli BL21(DE3), purified (same protocol as wild-type ADO); not shown: His6, C-terminal, cleaved) MPQLEASLELDFQSESYKDAYSRINAIVIEGEQEAFDNYNRLAEMLPDQRDELHKLAKMEQRHMKGFMACGKNLSVTPDMGFAQKFFERLHENFKAAAAEGKVVTCLLIQSLIIECFAIAAYNIYIPVADAFARKITEGVVRDEYLHRNFGEEWLKANFDASKAELEEANRQNLPLVWLMLNEVADDARELGMERESLVEDFMIAYGAALENIGFTTREIMRMSAYGLAAV",Kd,[3],14.8 ± 3.7 µM
